Consider 2 molecules from patent publication US20120202747A1 (TORU MIYAZAKI, published 2012).

Assay [1] has as its target T1, mouse CD36 fused with a FLAG-tag at its C terminus, overexpressed on HEK293 cells (mouse, UniProt Q08857 1-472).
T1 construct: whole, on cells; also called CD36-FLAG; not shown: C-terminal FLAG tag
The assay is described as follows: confocal microscopy of HEK293 cells overexpressing mouse CD36-FLAG, cultured with mouse AIM for 3 hours. How it is done:
CD36 is a twice-transmembrane-type molecule, is expressed on adipocytes and macrophages, and is involved in intracellular internalization of many molecules including fatty acids, LDL, and the like. Thus, HEK293 cells in which mouse CD36 fused with a FLAG-tag at its C terminus was overexpressed were produced, and the cells were cultured with mouse AIM for 3 hours. Subsequently, the cells were collected, stained using an anti-AIM antibody and an anti-CD36 antibody, and observed under a confocal microscope.

The target in assay [2] is T2, endogenous FAS (fatty acid synthase) in mouse adipocytes (mouse, UniProt P19096 1-2504).
T2 construct: also called cytosolic FAS
The assay is described as follows: precipitation of endocytosed HA-tagged rAIM from lysates of mouse adipose tissue with an anti-HA antibody, Western blot for FAS. How it is done: Further, the endocytosed rAIM was precipitated using lysates derived from those adipose tissues to examine whether endogenous FAS was co-precipitated or not. That is, the presence of FAS in the precipitate was analyzed by Western blotting using HA-tagged rAIM and an anti-HA antibody.

T1 sequence (Q08857 whole entry, the tested form may be a part): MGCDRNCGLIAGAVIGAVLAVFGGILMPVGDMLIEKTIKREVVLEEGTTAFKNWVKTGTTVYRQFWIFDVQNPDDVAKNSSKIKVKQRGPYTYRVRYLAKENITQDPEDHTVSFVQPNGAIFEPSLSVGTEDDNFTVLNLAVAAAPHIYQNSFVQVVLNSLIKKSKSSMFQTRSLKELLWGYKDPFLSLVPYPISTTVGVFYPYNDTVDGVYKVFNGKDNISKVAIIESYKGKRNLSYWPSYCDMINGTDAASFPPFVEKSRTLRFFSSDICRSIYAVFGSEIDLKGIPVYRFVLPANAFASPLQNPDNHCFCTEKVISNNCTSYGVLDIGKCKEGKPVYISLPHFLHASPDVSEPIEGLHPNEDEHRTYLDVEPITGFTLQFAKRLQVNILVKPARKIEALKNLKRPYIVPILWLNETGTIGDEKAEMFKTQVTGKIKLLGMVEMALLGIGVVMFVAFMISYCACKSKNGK
T2 sequence (P19096 whole entry): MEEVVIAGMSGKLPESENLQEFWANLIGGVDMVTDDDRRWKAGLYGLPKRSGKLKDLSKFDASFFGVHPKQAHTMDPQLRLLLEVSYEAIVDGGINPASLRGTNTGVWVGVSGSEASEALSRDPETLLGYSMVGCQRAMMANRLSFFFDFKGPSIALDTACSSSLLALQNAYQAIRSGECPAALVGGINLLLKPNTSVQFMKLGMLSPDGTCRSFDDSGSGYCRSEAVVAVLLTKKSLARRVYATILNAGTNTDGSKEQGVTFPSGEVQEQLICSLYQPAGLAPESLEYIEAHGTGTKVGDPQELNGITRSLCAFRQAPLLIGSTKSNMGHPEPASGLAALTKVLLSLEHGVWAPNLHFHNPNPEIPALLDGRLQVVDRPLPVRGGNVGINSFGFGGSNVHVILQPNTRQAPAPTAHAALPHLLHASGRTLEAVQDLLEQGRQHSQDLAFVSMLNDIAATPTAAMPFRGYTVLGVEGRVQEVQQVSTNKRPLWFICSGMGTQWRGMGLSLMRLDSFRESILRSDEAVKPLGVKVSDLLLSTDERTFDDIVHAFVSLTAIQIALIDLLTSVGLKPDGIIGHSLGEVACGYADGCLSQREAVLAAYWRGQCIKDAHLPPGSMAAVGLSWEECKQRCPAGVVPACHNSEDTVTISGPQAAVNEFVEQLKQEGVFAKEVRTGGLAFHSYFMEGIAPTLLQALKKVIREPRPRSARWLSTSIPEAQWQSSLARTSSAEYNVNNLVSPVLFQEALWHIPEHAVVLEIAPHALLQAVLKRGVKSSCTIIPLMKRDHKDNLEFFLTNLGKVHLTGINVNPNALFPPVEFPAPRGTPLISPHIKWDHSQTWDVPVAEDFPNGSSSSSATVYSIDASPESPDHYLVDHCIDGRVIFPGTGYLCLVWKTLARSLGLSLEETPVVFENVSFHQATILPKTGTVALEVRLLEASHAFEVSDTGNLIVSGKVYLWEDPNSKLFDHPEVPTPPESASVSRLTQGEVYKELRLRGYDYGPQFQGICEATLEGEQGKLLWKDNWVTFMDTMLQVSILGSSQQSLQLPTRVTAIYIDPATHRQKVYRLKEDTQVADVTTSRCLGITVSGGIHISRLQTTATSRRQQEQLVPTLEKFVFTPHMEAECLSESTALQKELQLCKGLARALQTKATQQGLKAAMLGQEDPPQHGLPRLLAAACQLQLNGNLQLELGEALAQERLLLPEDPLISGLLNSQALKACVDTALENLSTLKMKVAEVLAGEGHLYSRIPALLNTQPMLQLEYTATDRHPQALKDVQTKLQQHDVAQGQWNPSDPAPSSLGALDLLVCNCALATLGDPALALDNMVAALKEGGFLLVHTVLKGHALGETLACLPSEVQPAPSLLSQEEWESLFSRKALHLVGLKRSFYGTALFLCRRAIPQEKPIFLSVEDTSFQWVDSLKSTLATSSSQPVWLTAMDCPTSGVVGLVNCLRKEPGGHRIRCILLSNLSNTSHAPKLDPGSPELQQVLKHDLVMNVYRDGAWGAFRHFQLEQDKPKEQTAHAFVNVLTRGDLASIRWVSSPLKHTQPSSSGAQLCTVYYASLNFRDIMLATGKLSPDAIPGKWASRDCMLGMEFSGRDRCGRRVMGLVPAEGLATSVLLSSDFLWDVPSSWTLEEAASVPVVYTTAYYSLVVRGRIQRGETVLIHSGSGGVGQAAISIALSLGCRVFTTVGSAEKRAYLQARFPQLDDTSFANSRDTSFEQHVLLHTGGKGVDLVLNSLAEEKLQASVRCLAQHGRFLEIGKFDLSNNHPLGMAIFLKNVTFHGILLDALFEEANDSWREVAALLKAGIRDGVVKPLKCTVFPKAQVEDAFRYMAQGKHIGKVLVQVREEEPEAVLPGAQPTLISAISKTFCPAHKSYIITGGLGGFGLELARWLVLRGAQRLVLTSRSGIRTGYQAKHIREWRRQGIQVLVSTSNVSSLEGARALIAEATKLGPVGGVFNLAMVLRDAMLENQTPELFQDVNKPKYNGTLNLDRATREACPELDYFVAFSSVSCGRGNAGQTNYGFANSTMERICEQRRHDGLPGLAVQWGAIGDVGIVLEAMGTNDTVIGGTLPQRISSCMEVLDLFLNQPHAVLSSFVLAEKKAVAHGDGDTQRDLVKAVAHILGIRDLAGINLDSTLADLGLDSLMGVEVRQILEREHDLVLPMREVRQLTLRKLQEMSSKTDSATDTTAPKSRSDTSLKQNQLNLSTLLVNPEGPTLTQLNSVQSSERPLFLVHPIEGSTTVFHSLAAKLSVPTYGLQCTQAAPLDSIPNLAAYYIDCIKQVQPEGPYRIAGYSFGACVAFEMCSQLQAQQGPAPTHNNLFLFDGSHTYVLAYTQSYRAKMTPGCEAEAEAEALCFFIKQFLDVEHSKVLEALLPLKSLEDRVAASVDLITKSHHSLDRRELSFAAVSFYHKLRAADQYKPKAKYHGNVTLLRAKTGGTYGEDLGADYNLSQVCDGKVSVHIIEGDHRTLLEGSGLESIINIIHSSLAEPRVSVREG

B1: recombinant mouse AIM protein (other)
chain: ESPTKVQLVGGAHRCEGRVEVEHNGQWGTVCDDGWDRRDVAVVCRELNCGAVIQTPRGASYQPPASEQRVLIQGVDCNGTEDTLAQCELNYYVFDCSHEEDAGAQCENPDSDLLFIPEDVRLVDGPGHCQGRVEVLHQSQWSTVCKAGWNLQVSKVVCRQLGCGRALLTYGSCNKNTQGKGPIWMGKMSCSGQEANLRSCLLSRLENNCTHGEDTWMECEDPFELKLVGGDTPCSGRLEVLHKGSWGSVCDDNWGEKEDQVVCKQLGCGKSLHPSPKTRKIYGPGAGRIWLDDVNCSGKEQSLEFCRHRLWGYHDCTHKEDVEVICTDFDV
notes: no cleavage site is stated; also called Mouse rAIM; rAIM
As for B1, the binding result in assay [1] is “binds”.

B2: mouse AIM (apoptosis inhibitor of macrophage) fused with an HA-tag (other)
chain: ESPTKVQLVGGAHRCEGRVEVEHNGQWGTVCDDGWDRRDVAVVCRELNCGAVIQTPRGASYQPPASEQRVLIQGVDCNGTEDTLAQCELNYYVFDCSHEEDAGAQCENPDSDLLFIPEDVRLVDGPGHCQGRVEVLHQSQWSTVCKAGWNLQVSKVVCRQLGCGRALLTYGSCNKNTQGKGPIWMGKMSCSGQEANLRSCLLSRLENNCTHGEDTWMECEDPFELKLVGGDTPCSGRLEVLHKGSWGSVCDDNWGEKEDQVVCKQLGCGKSLHPSPKTRKIYGPGAGRIWLDDVNCSGKEQSLEFCRHRLWGYHDCTHKEDVEVICTDFDV
notes: also called HA-AIM; AIM tagged with HA; not shown: HA tag
On to B2, for which the binding result in assay [2] was “binds”.
